T1: Gentiana triflora GtCGT (GtUF6CGT1) variant V93Q/Y193F, SEQ ID NO: 61 (Gentiana triflora, UniProt A0A0B6VIJ5, V93Q/Y193F)
T1 sequence (A0A0B6VIJ5 1-477 V93Q/Y193F): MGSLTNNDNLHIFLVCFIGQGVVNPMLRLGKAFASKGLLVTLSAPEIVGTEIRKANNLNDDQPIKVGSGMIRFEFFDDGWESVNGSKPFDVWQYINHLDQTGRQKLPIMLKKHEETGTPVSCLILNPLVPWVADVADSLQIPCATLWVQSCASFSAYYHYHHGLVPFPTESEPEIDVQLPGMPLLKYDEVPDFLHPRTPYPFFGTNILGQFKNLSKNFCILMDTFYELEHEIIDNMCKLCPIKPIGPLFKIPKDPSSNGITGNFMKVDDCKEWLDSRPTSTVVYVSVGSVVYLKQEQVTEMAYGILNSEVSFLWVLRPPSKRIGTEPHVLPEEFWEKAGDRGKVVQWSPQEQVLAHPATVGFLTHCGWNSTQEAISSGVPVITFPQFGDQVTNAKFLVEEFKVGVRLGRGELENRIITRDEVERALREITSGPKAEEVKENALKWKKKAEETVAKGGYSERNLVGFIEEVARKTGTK


Tests used:
[1] = biological target: T1, Gentiana triflora GtCGT (GtUF6CGT1) variant V93Q/Y193F, SEQ ID NO: 61; test: enzyme kinetics of purified N-terminal 6xHis GtCGT V93Q/Y193F, FK to dcII, UDP-Glo Glycosyltransferase Assay; format: biochemical
Procedure: Each plasmid was constructed by PCR amplification of pCDF-GtCGT and pCDF-GtCGTmut using GtCGT_N_His_IV_F and GtCGT_N_His_IV_R primers, followed by blunt-end ligation through DpnI treatment and T4 PNK and T4 ligase treatment. Each of the two plasmids thus constructed was transformed into the E. coli BL21(DE3) strain, followed by seed culture in a test tube containing 10 mL of LB and then culture at 37° C. until OD600 reached 0.8 in a flask containing 500 mL of LB. After treatment with 1 mM IPTG for enzyme expression, additional culture was carried out at 20° C. for 16 hours, and cells were collected by centrifugation and then resuspended in 30 mL of lysis buffer (50 mM NaH2PO4, 0.3 M NaCl, 10 mM imidazole, pH 7.5). The cells were disrupted by ultrasonication and then centrifuged at 10,000 rpm and 4° C. for 40 minutes to obtain a supernatant containing water-soluble proteins. […]
Here, a UDP-Glo Glycosyltransferase Assay Kit (Promega) was used to determine the extent of reaction. Since this kit enables measurement of free UDP generated as a reaction byproduct by luminescence, 200 μL of an enzyme reaction solution containing 0.1 μM enzyme and various concentrations of FK (50 mM HEPES, 0.1 mM UDP-glucose, 5 mM MgCl2, pH 7.5) was allowed to react at 25° C. for 1 hour, 25 μL thereof was taken out, and the amount of emitted light was measured using the kit.

FK = test: dcII production from FK by C-glycosyltransferase candidates and GtCGT mutants in FK-producing E. coli, flask culture; format: cell-based; conditions: flask culture
Procedure: Flask culture was carried out under the following conditions. Colonies were seeded into 10 mL of LB medium supplemented with appropriate concentrations of antibiotics, followed by culture overnight at 37° C. The culture fluid thus prepared was passaged into a 250 mL baffled flask containing 50 mL of R/2 medium supplemented with 3 g/L yeast extract and 20 g/L glucose (with 0.45 g/L ascorbic acid if necessary), followed by culture at 30° C. and 200 rpm. The composition of R/2 medium (pH 6.8) was as follows (per liter): 2 g of (NH4)2HPO4, 6.75 g of KH2PO4, 0.85 g of citric acid, 0.7 g of MgSO4·7H2O, and 5 ml of trace metal solution (TMS) [10 g of FeSO4·7H2O, 2.25 g of ZnSO4·7H2O, 1 g of CuSO4·5H2O, 0.5 g of MnSO4·5H2O, 0.23 g of Na2B4O7·10H2O, 2 g of CaCl2·2H2O, and 0.1 g of (NH4)6Mo7O24 per liter of 5 M HCl]. When OD600 of the culture fluid reached 0.6-0.8, 1 mM isopropyl β-D-1-thiogalactopyranoside (IPTG) was added to induce exogenous gene expression, followed by culture for 48 hours.
After culture, production analysis was performed under the following conditions. After flask culture, 50 mL of the culture fluid was centrifuged at 4,000 g for 30 minutes, and then the supernatant was desalted and concentrated. Here, Oasis HLB cartridges (Water) were used. The supernatant was concentrated 1-fold for FK, 30-fold for KA, 45-fold for dell, and 200-fold for carminic acid. The concentrated sample was re-dissolved in an appropriate volume of DMSO and impurities were then removed therefrom using a 0.22 μm PTFE filter. The prepared sample was analyzed by MS (LC/MSD VL; Agilent) coupled with HPLC (1100 series; Agilent). An Eclipse XDB-C18 column was used, 0.1% formic acid was used as buffer A, and methanol was used as buffer B. Analysis was performed in an ESI negative mode. For more accurate analysis of carminic acid, LC-MS/MS was performed using an HPLC Triple Quadrupole Mass Spectrometer (LCMS-8050, Shimadzu) (MRM mode).
Flask culture started by seeding colonies from LB agar plates into test tubes containing 10 mL of LB. As such, an appropriate concentration of antibiotics was added, followed by culture overnight at 37° C. at 220 rpm. 1 mL of the seed culture thus prepared was inoculated into a 250 mL baffled flask containing 50 mL of R/2 medium (supplemented with 3 g/L yeast extract and 20 g/L glucose), followed by culture at 30° C. and 200 rpm. The composition of R/2 medium was as follows (pH 6.8, per 1 L): 2 g of (NH4)2HPO4, 6.75 g of KH2PO4, 0.85 g of citric acid, 0.8 g of MgSO4·7H2O, and 5 ml of trace metal solution (TMS). The composition of TMS was as follows (based on 0.1 M HCl, per 1 L): 10 g of FeSO4·7H2O, 2.25 g of ZnSO4·7H2O, 1 g of CuSO4·5H2O, 0.58 g of MnSO4·5H2O, 0.02 g of Na2B4O7·10H2O, 2 g of CaCl2·2H2O, and 0.1 g of (NH4)6Mo7O24·4H2O. When OD600 of the culture fluid reached 0.6-0.8, 0.5 mM IPTG was added to induce exogenous enzyme expression, followed by culture for 48 hours. In all experiments for producing flavokermesic acid, kermesic acid, dcII, and carminic acid, 0.45 g/L of ascorbic acid was further added.
The production of carminic acid (CA) from FK was performed by two biosynthesis pathways, both of which require monooxygenase and C-glycosyltransferase. FK may be oxidized into KA or may be C-glycosylated into dcII. […] In order for the enzyme to have activity, however, it must be glycosylated, and since it also has a transmembrane helix and a signal peptide, successful expression in cells such as E. coli is considered difficult.
For the enzymes selected above, pCDF-DcCGT, pCDF-MiCGT, pCDF-SfCGT, pCDF-EnCGT, pCDF-OsCGT, pCDF-FeCGT, pCDF-GmCGT, pCDF-AvCGT, pCDF-AvCGT, pCDF-ZmCGT, and pCDF-GtCGT were constructed, and all genes except for the iroB gene amplified from genomic DNA of E. coli Nissle using the iroB_gib_F primer and the iroB_gib_R primer were artificially synthesized and inserted into the NdeI site of the pCDFDuet-1 plasmid using Gibson assembly. […]

aloesone = test: Aloesin production from aloesone by GtCGT and variants in E. coli BL21(DE3), flask culture; format: cell-based
Procedure: Also, in LC-MS/MS for aloesin analysis, MS (Agilent 6550 iFunnel Q-TOF LC/MS System) coupled with ultra HPLC (UHPLC; 1290 Infinity II LC System; Agilent) was used. Here, an Eclipse-plus C18 column was used, and 0.1% formic acid was used as buffer A, and acetonitrile to which 0.1% formic acid was added was used as buffer B.
Thereafter, in order to test the production of aloesin, the pCDF-GtCGT or pCDF-GtCGT^V93Q/Y193F plasmid was transformed into the BL21(DE3) strain containing pWAS-anti-pabA, pRSF-RpALS, and pBBR1-zwf plasmids, followed by flask culture.
Similarly to the test for increased production of aloesone, RpALS was additionally introduced to increase aloesin production. To this end, pCDF-RpALS-GtCGT^V93Q/Y193F was constructed instead of introducing pCDF-GtCGT^V93Q/Y193F. Specifically, RpALS was amplified from pCDF-RpALS using pCDFDuet F and pCDFDuet R primers, and inserted into the NcoI and BamHI sites of the pCA plasmid through Gibson assembly. Thereafter, four plasmids, namely pRSF-RpALS, pCDF-RpALS-GtCGT^V93Q/Y193F, pWAS-anti-pabA, and pBBR1-zwf, were transformed into E. coli BL21(DE3), which was named an ALS strain.
(§1) Mutagenesis for a specific sequence was performed in the same manner as in Example 2. Here, plasmids containing gene mutants were constructed using pCDF-RpALS-GtCGT^V93Q/Y193F as a template and using primer pairs shown in Table 11 below. The plasmids thus constructed were transformed into the BL21 (DE3) strain along with three plasmids, namely pWAS-anti-pabA, pRSF-RpALS, and pBBR1-zwf, followed by flask culture under the same conditions as in Example 3 using the strains thus constructed. The concentration of aloesin produced was measured in an MRM mode of the HPLC Triple Quadrupole Mass Spectrometer (LCMS-8050, Shimadzu) of the KAIST Biocore Center.
as §1, with “13” for “11”

apigenin = test: Conversion of apigenin to vitexin by intracellularly expressed enzyme, flask culture; format: cell-based, E. coli
Procedure: (§2) As such, 70 μM luteolin, 0.5 mM naringenin, or 185.2 μM apigenin was co-administered, followed by culture for an additional 36 hours. The amounts of substrate and product were analyzed by LC-MS. Flask culture was carried out in a 250 mL baffled flask containing 50 mL of R/2 medium (supplemented with 3 g/L yeast extract and 20 g/L glucose), and culture was performed at 30° C. and 200 rpm.

naringenin = test: Conversion of naringenin to naringenin-6-C-glucoside by intracellularly expressed enzyme, flask culture; format: cell-based, E. coli
Procedure: as §2

luteolin = test: Conversion of luteolin to isoorientin by intracellularly expressed enzyme, flask culture; format: cell-based, E. coli
Procedure: as §2

[2] = KM and Vmax of purified GtCGT enzymes, FK converted into dcII, UDP-Glo Glycosyltransferase Assay; format: biochemical, Gentiana triflora; conditions: substrate FK
Procedure: The purified enzyme was buffer-exchanged with an enzyme storage solution (50 mM HEPES, 20% glycerol, pH 7.5) using Amicon Ultra-15 Centrifugal Filters (regenerated cellulose, 50,000 NMWL; Merck), and in order to calculate KM and Vmax values, FK was converted into dcII using the purified enzyme. Here, a UDP-Glo Glycosyltransferase Assay Kit (Promega) was used to determine the extent of reaction. Since this kit enables measurement of free UDP generated as a reaction byproduct by luminescence, 200 μL of an enzyme reaction solution containing 0.1 μM enzyme and various concentrations of FK (50 mM HEPES, 0.1 mM UDP-glucose, 5 mM MgCl2, pH 7.5) was allowed to react at 25° C. for 1 hour, 25 μL thereof was taken out, and the amount of emitted light was measured using the kit.

Molecule	KM value decreased compared to GtCGT ([1]; decrease vs wild-type GtCGT)	Vmax value increased compared to GtCGT ([1]; increase vs wild-type GtCGT)	dcII production increase compared to wild-type GtCGT (FK; FK strain)	dcII production (FK; FK-producing E. coli strain)	aloesin production (aloesone; BL21(DE3) with pWAS-anti-pabA, pRSF-RpALS, pBBR1-zwf and pCDF-GtCGT variant plasmid)	aloesin amount compared with strain containing GtCGT (aloesone; flask culture)	conversion rate (apigenin; apigenin to vitexin)	vitexin produced (apigenin; from 185.2 μM apigenin, 36 hours, with pBBR1-galU-pgm-ndk)	naringenin-6-C-glucoside produced (naringenin; from 0.5 mM naringenin, 36 hours, with pBBR1-galU-pgm-ndk)	conversion rate (naringenin; naringenin to naringenin-6-C-glucoside)	isoorientin produced (luteolin; from 70 μM luteolin, 36 hours, with pBBR1-galU-pgm-ndk)	conversion rate (luteolin; luteolin to isoorientin)	Vmax/KM value increase compared to GtCGT [2]
Cc1c(C(=O)O)c(O)cc2c1C(=O)c1c(O)cc(O)cc1C2=O [FK, flavokermesic acid]	19.5%	18.2%											
GtCGT^V93Q/Y193F: GtCGT variant with substitutions V93Q and Y193F (SEQ ID NO: 61) (protein, GtCGT V93Q/Y193F (GtUF6CGT1V93Q/Y193F) variant) MGSLTNNDNLHIFLVCFIGQGVVNPMLRLGKAFASKGLLVTLSAPEIVGTEIRKANNLNDDQPIKVGSGMIRFEFFDDGWESVNGSKPFDVWQYINHLDQTGRQKLPIMLKKHEETGTPVSCLILNPLVPWVADVADSLQIPCATLWVQSCASFSAYYHYHHGLVPFPTESEPEIDVQLPGMPLLKYDEVPDFLHPRTPYPFFGTNILGQFKNLSKNFCILMDTFYELEHEIIDNMCKLCPIKPIGPLFKIPKDPSSNGITGNFMKVDDCKEWLDSRPTSTVVYVSVGSVVYLKQEQVTEMAYGILNSEVSFLWVLRPPSKRIGTEPHVLPEEFWEKAGDRGKVVQWSPQEQVLAHPATVGFLTHCGWNSTQEAISSGVPVITFPQFGDQVTNAKFLVEEFKVGVRLGRGELENRIITRDEVERALREITSGPKAEEVKENALKWKKKAEETVAKGGYSERNLVGFIEEVARKTGTK			5.3 fold	0.74 mg CA eq/L	0.06 µg/L	greater amount of aloesin than the strain containing GtCGT	8.1%	15.0 µM	51.6 µM	10.3%	27.9 µM	27.9%	46.8%

Source: US20240102068A1, “C-GLYCOSYLTRANSFERASE VARIANTS AND USE THEREOF” (KOREA ADVANCED INSTITUTE OF SCIENCE AND TECHNOLOGY, priority 2021, published 2024)
